Publication PMC10175506, “Cryo-electron microscopy of the f1 filamentous phage reveals insights into viral infection and assembly” (Nature Communications, 2023)

B3: pVII, minor capsid protein of f1 phage (natural protein, UniProt P69534 1-33, looked up)
chain: MEQVADFDTIYQAMIQISVVLCFALGIIAGGQR
notes: the five N-terminal residues (MEQVA) are not visible in the map; Arg 33 is the C-terminal residue; Five copies stand in the round tip of the nanorod; source: expressed from helper plasmid pHP1YM in double-transformed host cells, assembled into f1-derived nanorods; nanorods purified from the supernatant (PEG, CsCl density gradient, anion exchange)

What was measured:
[1] = target: B3; assay: cryo-EM structure; purified f1-derived nanorods (529-nt ssDNA) plunge-frozen; map of the round tip, 5-fold symmetry applied, 2.8 Å; settings: both partners purified
[2] = target: the molecule itself; assay: cryo-EM structure; purified f1-derived nanorods (529-nt ssDNA) plunge-frozen; map of the pointy tip, 5-fold symmetry applied, 2.9 Å
[3] = target: the molecule itself; assay: cryo-EM structure; purified f1-derived nanorods (529-nt ssDNA) plunge-frozen; map of the round tip, 5-fold symmetry applied, 2.8 Å

B1: pIX, minor capsid protein of f1 phage (natural protein, UniProt P69537 1-32, looked up)
chain: MSVLVYSFASFVLGWCLRSGITYFTRLMETSS
notes: Five copies stand in the round tip of the nanorod; source: expressed from helper plasmid pHP1YM in double-transformed host cells, assembled into f1-derived nanorods; nanorods purified from the supernatant (PEG, CsCl density gradient, anion exchange)
[1]
  binding result: binds

B2: pVI, minor capsid protein of f1 phage (natural protein, UniProt P69531 1-112, looked up)
chain: MPVLLGIPLLLRFLGFLLVTLFGYLLTFLKKGFGKIAIAISLFLALIIGLNSILVGYLSDISAQLPSDFVQGVQLILPSNALPCFYVILSVKAAIFIFDVKQKIVSYLDWDK
notes: density observed for the entire protein; Five copies stand in the pointy tip of the nanorod; source: expressed from helper plasmid pHP1YM in double-transformed host cells, assembled into f1-derived nanorods; nanorods purified from the supernatant (PEG, CsCl density gradient, anion exchange)
[2]
  stoichiometry N: 5

## B3
[3]
  stoichiometry N: 5
